T1: canine IL-22 with a C-terminal HIS tag (canine)
T1 construct: Recombinant, made in HEK-293 or CHO cells; coated on the ELISA plate; also called cIL-22-His; canine IL-22-HIS
T1 chain: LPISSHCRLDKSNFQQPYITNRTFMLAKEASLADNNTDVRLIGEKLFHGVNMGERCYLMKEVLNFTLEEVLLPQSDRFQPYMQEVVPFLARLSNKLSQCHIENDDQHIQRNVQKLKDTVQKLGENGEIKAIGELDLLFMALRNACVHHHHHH

B1: Fezakinumab (human monoclonal anti-IL-22 antibody) (antibody, human IgG1, lambda, V domains shown)
VH: QVQLVQSGAEVKKPGASVKVSCKASGYTFTNYYMHWVRQAPGQGLEWVGWINPYTGSAFYAQKFRGRVTMTRDTSISTAYMELSRLRSDDTAVYYCAREPEKFDSDDSDVWGRGTLVTVSS
VL: QAVLTQPPSVSGAPGQRVTISCTGSSSNIGAGYGVHWYQQLPGTAPKLLIYGDSNRPSGVPDRFSGSKSGTSASLAITGLQAEDEADYYCQSYDNSLSGYVFGGGTQLTVLG
notes: Full human heavy and light chains, marked PRIOR ART; made recombinantly in HEK-293 or CHO cells; also called Fezakinumab-mAb; Feza-mAb

Assays:
[1] = target: biotinylated canine IL-31 (canine); test: ELISA: IL-31RA coated at 10 µg/mL, biotinylated IL-31 titrated 3-fold from 10 µg/mL, HRP-streptavidin
[2] = target: T1, canine IL-22 with a C-terminal HIS tag; test: ELISA: cIL-22-His coated at 1 µg/mL, Fezakinumab titrated from 5 µg/mL, anti-human IgG Fc-HRP
Experimental: The binding of canine IL-22 HIS to the anti-IL-22 antibody Fezakinumab was determined by ELISA as follows: […]

Molecule | EC50 [1] [µg/mL] | binding result [2]
Canine IL-31RA ECD-10His (extracellular domain of canine IL-31 receptor alpha fused to a HIS tag) | 0.368 | –
B1 | – | binds

Reference: patent US20230250177A1 (INTERVET, published 2023)
